Experimental data from the RNAGym collection of RNA variant scans (doi:10.7554/elife.80360).

B1: HDV Ribozyme (parent)
chain: GGCCGGCAUGGUCCCAGCCUCCUCGCUGGCGCCGGCUGGGCAACAUUCCGAGGGGACCGUCCCCUCGGUAAUGGCGAAUGGGACCCA

Variants of: B1
Assay: self-cleavage, relative activity (ratio to wild type); higher = more cleavage; co-transcriptional

Variant | self-cleavage
GGCCGGCAUGGUCCCAGCCUCCUCGCUGGCGCCGGCUGGGCAACAUUACGAGGGGACCGUCCACUCGGUAAUGGCGAAUGGGACCCA | 0.816
GGCCGGCAUGGUCCCAGCCUCCUCGCUGGCGCCGGCUGGGCAACAUUACGAGGGGACCGUCCCCUCGGUAAUGGCGAAUGCGACCCA | 0.193
GGCCGGCAUGGUCCCAGCCUCCUCGCUGGCGCCGGCUGGGCAACAUUACGAGGGGACCGUCCCCUCGGUAAUGGCGAAUGUGACCCA | 0.338
GGCCGGCAUGGUCCCAGCCUCCUCGCUGGCGCCGGCUGGGCAACAUUACGAGGGGACCGUCCCCUCGGUAAUGGCGAAUGAGACCCA | 0.448
GGCCGGCAUGGUCCCAGCCUCCUCGCUGGCGCCGGCUGGGCAACAUUACGAGGGGACCGUCCCCUCGGUAAUGACGAAUGGGACCCA | 0.7
GGCCGGCAUGGUCCCAGCCUCCUCGCUGGCGCCGGCUGGGCAACAUUAGGAGGGGACCGUCCCCUCGGUAAUGGCGAAUGGGACCCA | 1.01
GGCCGGCAUGGUCCCAGCCUCCUCGCUGGCGCCGGCUGGGCAACAUUACGAGGGGACCGUCCCCCCGGUAAUGGCGAAUGGGACCCA | 0.98
GGCCGGCAUGGUCCCAGCCUCCUCGCUGGCGCCGGCUGGGCAACAUUACGAGGGGACCGUCCCCGCGGUAAUGGCGAAUGGGACCCA | 0.954
GGCCGGCAUGGUCCCAGCCUCCUCGCUGGCGCCGGCUGGGCAACAUUACGAGGGGACCGUCCCCUCGGUAAUGGCAAAUGGGACCCA | 0.727
GGCCGGCAUGGUCCCAGCCUCCUCGCUGGCGCCGGCUGGGCAACAUUACGAGGGGACCGUCCCCUCGGUAAUGGCCAAUGGGACCCA | 1.05
GGCCGGCAUGGUCCCAGCCUCCUCGCUGGCGCCGGCUGGGCAACAUUGCGAGGGGGCCGUCCCCUCGGUAAUGGCGAAUGGGACCCA | 1.03
GGCCGGCAUGGUCCCAGCCUCCUCGCUGGCGCCGGCUGGGCAACAUUGCGAGGGGACCGUCCCCUCGGUAAUGGCGCAUGGGACCCA | 0.323
GGCCGGCAUGGUCCCAGCCUCCUCGCUGGCGCCGGCUGGGCAACAUUGCGAGGGGACCGUCCCCUCGGUAAUGGCGGAUGGGACCCA | 0.755
GGCCGGCAUGGUCCCAGCCUCCUCGCUGGCGCCGGCUGGGCAACAUUACGAGGGGACCGUCCCCUCGGUGAUGGCGAAUGGGACCCA | 1.11
GGCCGGCAUGGUCCCAGCCUCCUCGCUGGCGCCGGCUGGGCAACAUUACGAGGGGACCGUCCCCUCGGUCAUGGCGAAUGGGACCCA | 0.957
GGCCGGCAUGGUCCCAGCCUCCUCGCUGGCGCCGGCUGGGCAACAUUACGAGGGGACCGUCCCCUCGGUAAUGGCGAAUCGGACCCA | 0.169

Variant | self-cleavage
GGCCGGCAUGGUCCCAGCCUCCUCGCUGGCGCCGGCUGGGCAACAUUGCGAGGGGACCGUCCCCUCGGUCAUGGCGAAUGGGACCCA | 0.6
GGCCGGCAUGGUCCCAGCCUCCUCGCUGGCGCCGGCUGGGCAACAUUACGAGGGGACCGUCCCCUCGGUAAUGGCGAAAGGGACCCA | 0.974
GGCCGGCAUGGUCCCAGCCUCCUCGCUGGCGCCGGCUGGGCAACAUUACGAGGGGACCGUCCCAUCGGUAAUGGCGAAUGGGACCCA | 0.867
GGCCGGCAUGGUCCCAGCCUCCUCGCUGGCGCCGGCUGGGCAACAUUACGAGGGGACCGUCCCGUCGGUAAUGGCGAAUGGGACCCA | 0.786
GGCCGGCAUGGUCCCAGCCUCCUCGCUGGCGCCGGCUGGGCAACAUUACGAGAGGACCGUCCCCUCGGUAAUGGCGAAUGGGACCCA | 1.05
GGCCGGCAUGGUCCCAGCCUCCUCGCUGGCGCCGGCUGGGCAACAUUACGAGUGGACCGUCCCCUCGGUAAUGGCGAAUGGGACCCA | 0.915
GGCCGGCAUGGUCCCAGCCUCCUCGCUGGCGCCGGCUGGGCAACAUUACGAGGGCACCGUCCCCUCGGUAAUGGCGAAUGGGACCCA | 1.06
GGCCGGCAUGGUCCCAGCCUCCUCGCUGGCGCCGGCUGGGCAACAUUACGAGGGUACCGUCCCCUCGGUAAUGGCGAAUGGGACCCA | 0.933
GGCCGGCAUGGUCCCAGCCUCCUCGCUGGCGCCGGCUGGGCAACAUUACGAGGGGACCGUCCCCUGGGUAAUGGCGAAUGGGACCCA | 0.831
GGCCGGCAUGGUCCCAGCCUCCUCGCUGGCGCCGGCUGGGCAACAUUACGAAGGGACCGUCCCCUCGGUAAUGGCGAAUGGGACCCA | 0.926
GGCCGGCAUGGUCCCAGCCUCCUCGCUGGCGCCGGCUGGGCAACAUUACGAGGGGACCGUCCCCUCGGUAAUGGCGAAUGGGAGCCA | 0.727
GGCCGGCAUGGUCCCAGCCUCCUCGCUGGCGCCGGCUGGGCAACAUUACGAGGGGAUCGUCCCCUCGGUAAUGGCGAAUGGGACCCA | 0.76
GGCCGGCAUGGUCCCAGCCUCCUCGCUGGCGCCGGCUGGGCAACAUUACGAGGGGAACGUCCCCUCGGUAAUGGCGAAUGGGACCCA | 0.978
GGCCGGCAUGGUCCCAGCCUCCUCGCUGGCGCCGGCUGGGCAACAUUGCGUGGGGACCGUCCCCUCGGUAAUGGCGAAUGGGACCCA | 1.02
GGCCGGCAUGGUCCCAGCCUCCUCGCUGGCGCCGGCUGGGCAACAUUGCGCGGGGACCGUCCCCUCGGUAAUGGCGAAUGGGACCCA | 0.88
GGCCGGCAUGGUCCCAGCCUCCUCGCUGGCGCCGGCUGGGCAACAUUGCGGGGGGACCGUCCCCUCGGUAAUGGCGAAUGGGACCCA | 0.997
